Data reported in the RNAGym collection of RNA variant scans (doi:10.1073/pnas.2313332121).

B1: TPR t1 (parent)
chain: GACCAAUCUGCCCUCAGAGCUCGAGAACAUCUUCGGAUGCAGAGGAGGCAGGCUUCGGUGGCGCGAUAGCGCCAACGUCCUCAACCUCCAAUGCAUCCCACCACAUGAUGAUGCCUGAAGAGCCUUGGUUUUUUG

Variants of: B1
Test: polymerase ribozyme fitness, log enrichment relative to wild type (log ratio); higher = more active; in vitro selection for triplet polymerase activity
Method in brief: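 In triplicate, a single round of in vitro selection was run on each mutant library, PCR-built and transcribed, covering one subunit of a heterodimeric triplet polymerase ribozyme. Frozen incubation at −7 °C followed annealing with a biotinylated primer, partner subunit and triplets, and extended constructs were then gel-excised, streptavidin-captured and taken through RT-PCR. Fitness is the logarithm of genotype enrichment over wild-type enrichment, from inverse-variance-weighted replicate averages of Illumina-sequenced inputs and outputs. […] only genotypes with ≥10 input reads and ≥1 read per output were kept.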

For A29G A111C, which “polymerase ribozyme fitness (log ratio)” value is on record?
Its value is -0.114.

With A27G G63A C79U as the variant, how does the “polymerase ribozyme fitness (log ratio)” value read?
The value was -1.86.

For A26G C82A G113A A119U G120C, which “polymerase ribozyme fitness (log ratio)” value is on record?
The value was -3.14.

With A26G U129C as the variant, how does the “polymerase ribozyme fitness (log ratio)” value read?
The value was -2.73.

For A27G G57U, which “polymerase ribozyme fitness (log ratio)” value is on record?
The value was -2.3.

Which “polymerase ribozyme fitness (log ratio)” value does the source give for A27U A83U G128C here?
The value was -6.05.

With A29G C56U C101G as the variant, how does the “polymerase ribozyme fitness (log ratio)” value read?
Its value is -6.01.

For A29G A41C A119U U133G, which “polymerase ribozyme fitness (log ratio)” value is on record?
Its value is -2.94.

With A26U U54G U78C C89U as the variant, how does the “polymerase ribozyme fitness (log ratio)” value read?
The value was -5.2.

With A27G G60U A105U as the variant, how does the “polymerase ribozyme fitness (log ratio)” value read?
The value was -5.71.

Which “polymerase ribozyme fitness (log ratio)” value does the source give for A27C G120U here?
The value was -4.08.

With A27C G120A as the variant, how does the “polymerase ribozyme fitness (log ratio)” value read?
Its value is -3.

Which “polymerase ribozyme fitness (log ratio)” value does the source give for C28U U55A G71C here?
Its value is -2.75.

For C28U C49G U129A, which “polymerase ribozyme fitness (log ratio)” value is on record?
Its value is -5.15.

With C28U C104U as the variant, how does the “polymerase ribozyme fitness (log ratio)” value read?
Its value is -2.27.

For A27U A121C, which “polymerase ribozyme fitness (log ratio)” value is on record?
Its value is -0.527.

With A29C U54C as the variant, how does the “polymerase ribozyme fitness (log ratio)” value read?
Its value is -1.78.

With A27C G42C G71A G120C U126A U130G as the variant, how does the “polymerase ribozyme fitness (log ratio)” value read?
The value was -6.83.

For C28U C72G U78A, which “polymerase ribozyme fitness (log ratio)” value is on record?
Its value is -2.79.

With A29G C124U as the variant, how does the “polymerase ribozyme fitness (log ratio)” value read?
Its value is 1.18.

Which “polymerase ribozyme fitness (log ratio)” value does the source give for A29G C124A here?
The value was 0.584.

Which “polymerase ribozyme fitness (log ratio)” value does the source give for A29C G69U C99U here?
The value was -3.95.

With A26U A75G A95G as the variant, how does the “polymerase ribozyme fitness (log ratio)” value read?
The value was -2.74.

For C28A G47A C79U G110C, which “polymerase ribozyme fitness (log ratio)” value is on record?
The value was -2.69.

Which “polymerase ribozyme fitness (log ratio)” value does the source give for C28G G110U C124U here?
The value was -0.355.

For C28U A37C C76G, which “polymerase ribozyme fitness (log ratio)” value is on record?
The value was -3.54.

With A26G G71C C79G as the variant, how does the “polymerase ribozyme fitness (log ratio)” value read?
Its value is -3.86.

With C28U A50U C62U A68G U106A G110A C114A as the variant, how does the “polymerase ribozyme fitness (log ratio)” value read?
The value was -6.37.

With A26U G39U G60C U78C G117C as the variant, how does the “polymerase ribozyme fitness (log ratio)” value read?
Its value is -6.27.

With C28U G47U C97U C101U A103G G117C as the variant, how does the “polymerase ribozyme fitness (log ratio)” value read?
The value was -7.85.

For A26U C114U, which “polymerase ribozyme fitness (log ratio)” value is on record?
The value was -5.07.

For A26U C114A, which “polymerase ribozyme fitness (log ratio)” value is on record?
The value was -3.87.

For A27C U54A G71A C115A U129A, which “polymerase ribozyme fitness (log ratio)” value is on record?
Its value is -5.86.

For A27G A46C A50U, which “polymerase ribozyme fitness (log ratio)” value is on record?
Its value is -4.64.

With A29G C72A as the variant, how does the “polymerase ribozyme fitness (log ratio)” value read?
Its value is -1.27.

For C28A A41U C53G C104G G110A, which “polymerase ribozyme fitness (log ratio)” value is on record?
The value was -6.89.

With A26U C56A U59C as the variant, how does the “polymerase ribozyme fitness (log ratio)” value read?
The value was -4.4.

With C28G C72G as the variant, how does the “polymerase ribozyme fitness (log ratio)” value read?
Its value is -2.2.

For A29G A118U, which “polymerase ribozyme fitness (log ratio)” value is on record?
The value was -0.684.

Which “polymerase ribozyme fitness (log ratio)” value does the source give for A27G C73A here?
Its value is -2.84.

With A29C G36U G69C G77A C97U A105U U106A as the variant, how does the “polymerase ribozyme fitness (log ratio)” value read?
The value was -5.4.

For C28G C73U, which “polymerase ribozyme fitness (log ratio)” value is on record?
Its value is -2.15.

For A27U G44C U96C, which “polymerase ribozyme fitness (log ratio)” value is on record?
The value was -4.49.

With A27G C49U C76G as the variant, how does the “polymerase ribozyme fitness (log ratio)” value read?
The value was -2.99.

Which “polymerase ribozyme fitness (log ratio)” value does the source give for C28U G60A C72G G110C C115G G120U here?
Its value is -7.22.

With A26U G44C G48C C101A A111G U112A C124A as the variant, how does the “polymerase ribozyme fitness (log ratio)” value read?
Its value is -8.24.

For A26U G47A, which “polymerase ribozyme fitness (log ratio)” value is on record?
Its value is -4.24.

With A29G A37U G61U as the variant, how does the “polymerase ribozyme fitness (log ratio)” value read?
Its value is -1.98.

For A27U G44U C56A U133A, which “polymerase ribozyme fitness (log ratio)” value is on record?
Its value is -4.31.

With A27U U54A as the variant, how does the “polymerase ribozyme fitness (log ratio)” value read?
Its value is -2.8.

For A27C G47U G63A C86U, which “polymerase ribozyme fitness (log ratio)” value is on record?
The value was -6.59.

For A26U G36C, which “polymerase ribozyme fitness (log ratio)” value is on record?
The value was -4.29.

For A26U A29G, which “polymerase ribozyme fitness (log ratio)” value is on record?
Its value is -4.77.

With C28A G39U A43G C56U G61U C64G G120C as the variant, how does the “polymerase ribozyme fitness (log ratio)” value read?
Its value is -6.64.

Which “polymerase ribozyme fitness (log ratio)” value does the source give for C28G A66G C123U here?
The value was -3.76.

For A29C C70U, which “polymerase ribozyme fitness (log ratio)” value is on record?
Its value is -2.29.

For C28G C53A C72A, which “polymerase ribozyme fitness (log ratio)” value is on record?
Its value is -3.19.

Which “polymerase ribozyme fitness (log ratio)” value does the source give for A27G G57C G122A U132C here?
Its value is -3.07.

Which “polymerase ribozyme fitness (log ratio)” value does the source give for A26U U81C here?
Its value is -3.05.

With A26U G61A as the variant, how does the “polymerase ribozyme fitness (log ratio)” value read?
The value was -3.03.

For A26U C72U C124U, which “polymerase ribozyme fitness (log ratio)” value is on record?
The value was -1.98.

With A27G G45U U96G G120U as the variant, how does the “polymerase ribozyme fitness (log ratio)” value read?
Its value is -3.04.

Which “polymerase ribozyme fitness (log ratio)” value does the source give for A26U U54A G110A here?
Its value is -5.04.

With A27U G39U C72A as the variant, how does the “polymerase ribozyme fitness (log ratio)” value read?
The value was -3.78.

For A26G G69A A91U U133G, which “polymerase ribozyme fitness (log ratio)” value is on record?
The value was -6.73.

Which “polymerase ribozyme fitness (log ratio)” value does the source give for A26U C53A U78A G110A here?
The value was -5.05.

With A26U A46C A90G U106A G127C as the variant, how does the “polymerase ribozyme fitness (log ratio)” value read?
The value was -2.32.

For C28G A111G, which “polymerase ribozyme fitness (log ratio)” value is on record?
Its value is -4.41.

Which “polymerase ribozyme fitness (log ratio)” value does the source give for A26G G63A C124G here?
The value was -0.0451.

With A27G C62U C94A U106C as the variant, how does the “polymerase ribozyme fitness (log ratio)” value read?
Its value is -4.15.

With A27U U133A as the variant, how does the “polymerase ribozyme fitness (log ratio)” value read?
Its value is -3.33.

Which “polymerase ribozyme fitness (log ratio)” value does the source give for C28G G63A G93U C114A A118C here?
The value was -7.47.

Which “polymerase ribozyme fitness (log ratio)” value does the source give for C28A C56U here?
The value was -2.94.

For A27U U38C A46U G48A G69U G110U C114U A119G, which “polymerase ribozyme fitness (log ratio)” value is on record?
The value was -6.11.

With A26U C72G G120A as the variant, how does the “polymerase ribozyme fitness (log ratio)” value read?
The value was -2.51.

Which “polymerase ribozyme fitness (log ratio)” value does the source give for A27U G71A U96A U109A here?
Its value is -6.15.

Which “polymerase ribozyme fitness (log ratio)” value does the source give for C28G U32C C56G G117A here?
The value was -5.54.

For A26U C82G, which “polymerase ribozyme fitness (log ratio)” value is on record?
The value was -4.82.

Which “polymerase ribozyme fitness (log ratio)” value does the source give for A29G C49G C85G here?
The value was -2.46.

Which “polymerase ribozyme fitness (log ratio)” value does the source give for A27G A29C G36A A46C C72G U106C U112G U116A here?
The value was -7.34.

Which “polymerase ribozyme fitness (log ratio)” value does the source give for A26U G69U here?
The value was -1.44.

With A27U U81C U132C as the variant, how does the “polymerase ribozyme fitness (log ratio)” value read?
The value was -4.09.

With C28U C123G as the variant, how does the “polymerase ribozyme fitness (log ratio)” value read?
The value was -0.0468.
